Assay results from US20200283521A1.

Target: human FcRn (human) (UniProt P55899)
Test: SPR steady state at pH 6, FcRn coupled

Chain of human FcRn (human) (P55899 24-297 limits assumed, chain 1 of 2): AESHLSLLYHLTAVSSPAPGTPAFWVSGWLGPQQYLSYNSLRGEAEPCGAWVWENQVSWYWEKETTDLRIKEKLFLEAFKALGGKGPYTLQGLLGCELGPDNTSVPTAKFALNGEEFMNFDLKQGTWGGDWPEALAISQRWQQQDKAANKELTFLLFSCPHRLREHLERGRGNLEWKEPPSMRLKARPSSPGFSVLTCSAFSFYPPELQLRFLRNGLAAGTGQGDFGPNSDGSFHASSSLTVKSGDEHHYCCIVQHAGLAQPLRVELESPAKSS
Chain of human FcRn (human) (chain, as listed by the source limits assumed, chain 2 of 2): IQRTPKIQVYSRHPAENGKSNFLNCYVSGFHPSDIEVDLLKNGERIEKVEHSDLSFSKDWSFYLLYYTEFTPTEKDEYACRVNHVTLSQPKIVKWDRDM

## isotype control human IgG4 antibody
  Kd: 2600 nM

## isotype control human IgG1 (antibody)
  Kd: 1180 nM
